Measured values reported in the supplement of paper PMC7125110.
± gives the standard error. For part of these data: Variants at the floor of the assay were thinned out.

B1: glmS ribozyme (parent)
chain: AUAAAAGCGCCAGAACUACAGAAAUGUAGUUGACGAGGAGGAGGUUUAUCGAAUUUUCGGCGGAUGCCUCCAAA

Columns and labels:
Settings in all cases: with glucosamine-6-phosphate
[1] = variants of: B1; experiment: kcat; higher = faster cleavage; RNA array
Outline: (§1)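 On sequenced MiSeq chips, barcoded ribozyme variants were made in situ by E. coli RNA polymerase and followed at 37 °C through a hybridised Cy3 probe. Glucosamine-6-phosphate was flowed in at 40 μM to 10 mM in HEPES/KCl/Mg(OAc)2 buffer. Exponential fits to normalised per-tile medians gave kobs, and weighted Michaelis–Menten fits gave kcat and KM.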

[2] = variants of: B1; experiment: KM; higher = weaker cofactor use; RNA array
Outline: as §1

[3] = variants of: B1; experiment: self-cleavage kobs at 40 uM GlcN6P; higher = faster cleavage; RNA array
Outline: as §1

[4] = variants of: B1; experiment: self-cleavage kobs at 160 uM GlcN6P; higher = faster cleavage; RNA array
Outline: as §1

[5] = variants of: B1; experiment: self-cleavage kobs at 2500 uM GlcN6P; higher = faster cleavage; RNA array
Outline: as §1

[6] = variants of: B1; experiment: self-cleavage kobs at 10000 uM GlcN6P; higher = faster cleavage; RNA array
Outline: as §1

[7] = variants of: B1; experiment: self-cleavage kobs at 640 uM GlcN6P; higher = faster cleavage; RNA array
Outline: as §1

Row | Variant | kcat [1] [s⁻¹] | KM [2] [µM] | self-cleavage kobs at 40 uM GlcN6P [3] [s⁻¹] | self-cleavage kobs at 160 uM GlcN6P [4] [s⁻¹] | self-cleavage kobs at 2500 uM GlcN6P [5] [s⁻¹] | self-cleavage kobs at 10000 uM GlcN6P [6] [s⁻¹] | self-cleavage kobs at 640 uM GlcN6P [7] [s⁻¹]
1 | AUAAAAGCGCCAGAACUACAGAAAUGUAGGUGACGAGGAGGAGGUUUUUCGAAUUUUCGGCGGAUGCCUCCAAA [U30G A48U] | 7.56e-05 ± 6e-06 | 1040 ± 340 | < 1e-05 | < 1e-05 | 5.84e-05 ± 1.2e-05 | 6.65e-05 ± 1.1e-05 | 
2 | AUAAAAGCGCCAGAACUACAGAAAUGUAGCUGACGAGGAGGAGGUUUAUCGAAUCUUCGGCGGAUGCCUCCAAA [U30C U55C] | 0.000295 ± 3.2e-05 | 1490 ± 290 |  | 3.54e-05 ± 9.7e-06 | 0.000167 ± 2.4e-05 | 0.000281 ± 3.9e-05 | 8.83e-05 ± 8.8e-06
3 | AUAAAAGCGCCAGAACUACAGAAAUGUAGCUGACGAGGAGGAGGUUUAUCGAAUUUUCGGCGGAGGCCUCCAAA [U30C U65G] | 7.96e-05 ± 3.5e-06 | 1130 ± 230 |  |  | 4.99e-05 ± 1.1e-05 | 7.23e-05 ± 6.6e-06 | 3.09e-05 ± 1e-05
4 | AUAAAAGCGCCAGAACUACAGAAAUGUAGCGGACGAGGAGGAGGUUUAUCGAAUUUUCGGCGGAUGCCUCCAAA [U30C U31G] | 0.00836 ± 0.0018 | 2370 ± 690 | 0.000147 ± 1.9e-05 | 0.000404 ± 0.0001 | 0.00353 ± 0.0008 | 0.00701 ± 0.00093 | 0.00249 ± 0.00044
5 | AUAAAAGCGCCAGAACUACAGAAAUGUAGCUGACGAGGAGGAGGUUUAUCGAAUUCUCGGCGGAUGCCUCCAAA [U30C U56C] | 0.000116 ± 7.6e-06 | 4270 ± 610 |  |  | 4.38e-05 ± 4.8e-06 | 8.1e-05 ± 7e-06 | 
6 | AUAAAAGCGCCAGAACUACAGAAAUGUAGCUGACGAGGAGGAGGCUUAUCGAAUUUUCGGCGGAUGCCUCCAAA [U30C U45C] | 3.55e-05 ± 1.6e-05 |  | < 1e-05 |  | 4.35e-05 ± 2.1e-05 |  | 
7 | AUAAAAGCGCCAGAACUACAGAAAUGUAGCUGACGAGGAGGAGGAUUAUCGAAUUUUCGGCGGAUGCCUCCAAA [U30C U45A] | 0.000449 ± 4.9e-05 | 1150 ± 280 |  | 5.04e-05 ± 1.7e-05 | 0.000235 ± 8.7e-05 | 0.000418 ± 6e-05 | 0.000176 ± 3.8e-05
8 | AUAAAAGCGCCAGAACUACAGAAAUGUAGCUGACGAGGAGGAGGUAUAUCGAAUUUUCGGCGGAUGCCUCCAAA [U30C U46A] | 1.46e-05 ± 6.8e-06 |  | < 1e-05 |  |  |  | 
